Reference: patent publication US10772928B2, “Modulation and detection of a neuronal alternative splicing regulatory network for treatment and diagnosis of neurological disorders” (The Governing Council of the University of Toronto, priority 2014, dated 2020)

Target: T1, nSR100 (Mus musculus, UniProt Q8BKA3)
T1 construct: host or cells: mouse N2A cells
T1 sequence (Q8BKA3 1-608): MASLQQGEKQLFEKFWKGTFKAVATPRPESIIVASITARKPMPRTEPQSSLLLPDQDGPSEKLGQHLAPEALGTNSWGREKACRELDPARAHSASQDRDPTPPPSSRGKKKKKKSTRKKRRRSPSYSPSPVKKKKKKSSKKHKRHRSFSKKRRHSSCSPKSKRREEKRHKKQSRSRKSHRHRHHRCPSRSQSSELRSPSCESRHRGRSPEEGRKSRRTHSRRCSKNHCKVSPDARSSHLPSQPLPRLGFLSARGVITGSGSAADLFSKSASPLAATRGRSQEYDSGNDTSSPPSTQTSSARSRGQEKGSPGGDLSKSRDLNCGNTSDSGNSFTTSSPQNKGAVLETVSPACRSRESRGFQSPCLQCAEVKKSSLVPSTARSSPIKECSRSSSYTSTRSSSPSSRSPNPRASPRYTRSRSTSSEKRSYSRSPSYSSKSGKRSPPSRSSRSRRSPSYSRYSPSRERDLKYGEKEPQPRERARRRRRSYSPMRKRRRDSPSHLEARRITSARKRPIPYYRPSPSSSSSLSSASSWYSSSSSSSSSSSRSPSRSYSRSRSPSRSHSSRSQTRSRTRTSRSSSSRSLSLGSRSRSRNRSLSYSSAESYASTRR
Experiment: AP-MS nSR100 interaction partners from mouse N2A cells (Table 5)
Assay type: binding
Conditions: for AvgP (average of the SAINT scores) / MaxP (maximal SAINT score): bait Srrm4; for FoldChange between the prey Avg spectra of the bait and control purifications: bait Srrm4, 0.1 added to prevent division by 0; for AvgSpec (average number of spectra per replicate): bait Srrm4, 2 replicates; for Spectra (number of spectra for the prey in the purification of the bait): AP-MS; for SpecSum: bait Srrm4, sum of spectra over 2 replicates

[1] = bait Srrm4, biological replicate 1 (first number of the cell)
[2] = bait Srrm4, biological replicate 2 (second number of the cell)

Source text: By applying affinity purification coupled to mass-spectrometry (AP-MS), several interaction nSR100 partner proteins were detected that provide insight into mechanisms of post-translational regulation of nSR100 levels.

Substance	AvgP (average of the SAINT scores)	MaxP (maximal SAINT score)	FoldChange between the prey Avg spectra of the bait and control purifications	AvgSpec (average number of spectra per replicate)	Spectra (number of spectra for the prey in the purification of the bait) [1]	Spectra (number of spectra for the prey in the purification of the bait) [2]	SpecSum
Ap2a2	1	1	6.16	117	97	137	234
Ap2m1	1	1	9.12	36.5	31	42	73
Clk3	0.97	0.99	25	2.5	2	3	5
Csnk2b	0.99	1	8.5	8.5	10	7	17
Gpatch8	0.95	0.95	20	2	2|2	2|2	4
Magohb	1	1	21	10.5	10	11	21
Pnn	1	1	25.33	38	33	43	76
Prpf8	1	1	3.36	60.5	63	58	121
Snrnp70	1	1	5.1	51	48	54	102
Son	0.98	1	45	4.5	2	7	9
Srrm2	1	1	5.37	51	47	55	102

More lines, now with the values ahead:

AvgP (average of the SAINT scores)	MaxP (maximal SAINT score)	FoldChange between the prey Avg spectra of the bait and control purifications	AvgSpec (average number of spectra per replicate)	Spectra (number of spectra for the prey in the purification of the bait) [1]	Spectra (number of spectra for the prey in the purification of the bait) [2]	SpecSum	Substance
1	1	9.5	19	17	21	38	Bub3
1	1	90	9	6	12	18	Cdc42bpb
1	1	14.25	57	47	67	114	Cdk1
1	1	150	15	15|15	15|15	30	Ddx39b
1	1	390	39	41	37	78	Hspa2
1	1	6.6	16.5	17	16	33	Idh2
0.97	1	4	14	16	12	28	Nudt21
0.99	1	11.33	17	16	18	34	Pcbp1
0.95	0.95	20	2	2|2	2|2	4	Prrc2a
0.95	0.95	20	2	2|2	2|2	4	Rfc2
0.99	1	11	5.5	5	6	11	Snrpc
1	1	45	4.5	3	6	9	Wdr48
1	1	3.57	25	24	26	50	Ywhae
